11 sequences from the supplement of paper PMC10724198 can be followed below.

± gives the standard deviation of the averaged measurements.

Data set [1] concerns Saccharomyces cerevisiae. As to the kind of experiment: protein stability index of tFT-peptide fusion (C-terminal peptide) (PSI (0-1 scale)); higher = more stable (slower turnover). Conditions: genetic background: wild type; temperature: 30 C.
The subject of data set [2] is Saccharomyces cerevisiae. The data set is described as above. Here is the method:
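MPS profiling in S. cerevisiae of the tFT-X12 degron library: putative degron peptides plus stable controls, 12 aa, fused to the C-terminus of a sfGFP-mCherry timer. Cells are FACS-sorted into 8 mCherry/sfGFP bins and deep-sequenced. PSI runs from 0 (unstable) to 1 (stable). Backgrounds are wild type, das1Δ and doa10Δ at 30 °C, and wild type, das1Δ, cdc34-1 and cdc53-1 at 37 °C; 2-3 technical replicates each.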

Where [3] appears, read: genetic background: cdc34-1, temperature: 37 C.
The mark [4] stands for this setting: genetic background: cdc53-1, temperature: 37 C.
Setting [5] is: genetic background: das1 deletion, temperature: 30 C.
[6] abbreviates: genetic background: das1 deletion, temperature: 37 C.
Setting [7] is: genetic background: doa10 deletion, temperature: 30 C.
Where [8] appears, read: genetic background: wild type, temperature: 30 C.
Setting [9] is: genetic background: wild type, temperature: 37 C.
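Also: PSI is a weighted mean of sequencing reads over stability bins, variants kept only with over 10 reads, mCherry proximal and sfGFP distal, peptide attached via GGGS linker.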

Regarding VWSWFVIYFFFC, the protein stability index with Saccharomyces cerevisiae [1] worked out at 0.368 ± 0.0054; in the data set on Saccharomyces cerevisiae [2] (setting [3]), 0.358 ± 0.025; in the data set on Saccharomyces cerevisiae [2] (setting [4]), 0.388 ± 0.0079; with Saccharomyces cerevisiae [2] (setting [5]), 0.335 ± 0.029; in the data set on Saccharomyces cerevisiae [2] (setting [6]) it was 0.497 ± 0.013; in the data set with Saccharomyces cerevisiae [2] (setting [7]), 0.366 ± 0.02. The protein stability index was determined as 0.324 ± 0.014 in the data set with Saccharomyces cerevisiae [2] (setting [8]) and 0.444 ± 0.02 in the data set on Saccharomyces cerevisiae [2] (setting [9]).
Regarding VYCTFLFAYTLP, the protein stability index in the data set with Saccharomyces cerevisiae [1] is 0.483 ± 0.0062; in the data set with Saccharomyces cerevisiae [2] (setting [3]) it was 0.556 ± 0.036; with Saccharomyces cerevisiae [2] (setting [4]) it was 0.591 ± 0.032; in the data set with Saccharomyces cerevisiae [2] (setting [5]), 0.443 ± 0.015; in the data set with Saccharomyces cerevisiae [2] (setting [6]), 0.602 ± 0.0074; with Saccharomyces cerevisiae [2] (setting [7]) it was 0.435 ± 0.0053. In addition, the protein stability index in the data set with Saccharomyces cerevisiae [2] (setting [8]) was 0.443 ± 0.015; in the data set on Saccharomyces cerevisiae [2] (setting [9]), 0.59 ± 0.0096.
On to VYEVELSVRVTV, for which the protein stability index in the data set on Saccharomyces cerevisiae [1] was determined as 0.522 ± 0.063; in the data set with Saccharomyces cerevisiae [2] (setting [3]) it was 0.552 ± 0.03; in the data set with Saccharomyces cerevisiae [2] (setting [4]), 0.56 ± 0.013; in the data set on Saccharomyces cerevisiae [2] (setting [5]) it was 0.435 ± 0.026; with Saccharomyces cerevisiae [2] (setting [6]) it was 0.548 ± 0.0089; in the data set with Saccharomyces cerevisiae [2] (setting [7]), 0.404 ± 0.0053. The values for the protein stability index in the data set with Saccharomyces cerevisiae [2] (setting [8]) and with Saccharomyces cerevisiae [2] (setting [9]) were 0.447 ± 0.035 and 0.51 ± 0.0073, respectively.
For VYVVLGTVYVTY, the protein stability index in the data set with Saccharomyces cerevisiae [1] was 0.273 ± 0.025; in the data set on Saccharomyces cerevisiae [2] (setting [3]) it was 0.195 ± 0.014; in the data set with Saccharomyces cerevisiae [2] (setting [4]), 0.325 ± 0.013; in the data set on Saccharomyces cerevisiae [2] (setting [5]) it was 0.194 ± 0.025; with Saccharomyces cerevisiae [2] (setting [6]), 0.381 ± 0.0087; with Saccharomyces cerevisiae [2] (setting [7]), 0.166 ± 0.0049. For the same sequence, the results for the protein stability index with Saccharomyces cerevisiae [2] (setting [8]) and in the data set on Saccharomyces cerevisiae [2] (setting [9]) were 0.187 ± 0.031 and 0.362 ± 0.021, respectively.
For WDPKISVFVLID, the protein stability index was 0.403 ± 0.0096 in the data set with Saccharomyces cerevisiae [1]; 0.439 ± 0.056 in the data set on Saccharomyces cerevisiae [2] (setting [3]); 0.53 ± 0.11 in the data set with Saccharomyces cerevisiae [2] (setting [4]); 0.344 ± 0.024 in the data set with Saccharomyces cerevisiae [2] (setting [5]); 0.55 ± 0.025 in the data set with Saccharomyces cerevisiae [2] (setting [6]); 0.246 ± 0.013 in the data set on Saccharomyces cerevisiae [2] (setting [7]). For the same sequence, the figures for the protein stability index with Saccharomyces cerevisiae [2] (setting [8]) and with Saccharomyces cerevisiae [2] (setting [9]) were 0.291 ± 0.018 and 0.479 ± 0.0098, respectively.
Take WFAHGLRHFRIL: the protein stability index in the data set with Saccharomyces cerevisiae [1] came out at 0.375 ± 0.068; in the data set on Saccharomyces cerevisiae [2] (setting [3]), 0.653 ± 0.081; in the data set with Saccharomyces cerevisiae [2] (setting [4]), 0.76058 ± 0.00075; in the data set on Saccharomyces cerevisiae [2] (setting [5]) it was 0.661 ± 0.0098; with Saccharomyces cerevisiae [2] (setting [6]), 0.742 ± 0.027; with Saccharomyces cerevisiae [2] (setting [7]), 0.273 ± 0.016. Further, the protein stability index in the data set with Saccharomyces cerevisiae [2] (setting [8]) was 0.299 ± 0.012; with Saccharomyces cerevisiae [2] (setting [9]), 0.532 ± 0.034.
Consider WFFLFGFVFFFR, for which the protein stability index in the data set with Saccharomyces cerevisiae [1] amounted to 0.411 ± 0.077; in the data set with Saccharomyces cerevisiae [2] (setting [3]), 0.36 ± 0.059; in the data set on Saccharomyces cerevisiae [2] (setting [4]) it was 0.4002 ± 0.0035; in the data set on Saccharomyces cerevisiae [2] (setting [5]), 0.352 ± 0.044; in the data set with Saccharomyces cerevisiae [2] (setting [6]), 0.475 ± 0.019; with Saccharomyces cerevisiae [2] (setting [7]), 0.433 ± 0.018. Also, the protein stability index in the data set with Saccharomyces cerevisiae [2] (setting [8]) came out at 0.351 ± 0.039; in the data set with Saccharomyces cerevisiae [2] (setting [9]), 0.4444 ± 0.0032.
For WFGCSTVWVRVQ, the protein stability index stood at 0.147 ± 0.0067 with Saccharomyces cerevisiae [1]; 0.286 ± 0.055 in the data set with Saccharomyces cerevisiae [2] (setting [3]); 0.394 ± 0.0052 with Saccharomyces cerevisiae [2] (setting [4]); 0.328 ± 0.037 in the data set with Saccharomyces cerevisiae [2] (setting [5]); 0.502 ± 0.0075 in the data set on Saccharomyces cerevisiae [2] (setting [6]); 0.0767 ± 0.0031 with Saccharomyces cerevisiae [2] (setting [7]). Further, the protein stability index turned out to be 0.0787 ± 0.024 with Saccharomyces cerevisiae [2] (setting [8]) and 0.0591 ± 0.021 in the data set with Saccharomyces cerevisiae [2] (setting [9]).
On to WFIPRSVCRWLF, for which the protein stability index was found to be 0.135 ± 0.0067 in the data set on Saccharomyces cerevisiae [1]; 0.515 ± 0.067 in the data set with Saccharomyces cerevisiae [2] (setting [3]); 0.684 ± 0.028 with Saccharomyces cerevisiae [2] (setting [4]); 0.611 ± 0.023 in the data set with Saccharomyces cerevisiae [2] (setting [5]); 0.676 ± 0.033 with Saccharomyces cerevisiae [2] (setting [6]); 0.0895 ± 0.017 in the data set with Saccharomyces cerevisiae [2] (setting [7]). In addition, the protein stability index with Saccharomyces cerevisiae [2] (setting [8]) turned out to be 0.0735 ± 0.026; with Saccharomyces cerevisiae [2] (setting [9]), 0.116 ± 0.023.
Regarding WFSAGSCRWVLC, the protein stability index in the data set with Saccharomyces cerevisiae [1] came out at 0.24 ± 0.0076; in the data set with Saccharomyces cerevisiae [2] (setting [3]), 0.58 ± 0.061; in the data set on Saccharomyces cerevisiae [2] (setting [4]), 0.71 ± 0.023; in the data set with Saccharomyces cerevisiae [2] (setting [5]) it was 0.543 ± 0.012; in the data set with Saccharomyces cerevisiae [2] (setting [6]), 0.709 ± 0.013; in the data set on Saccharomyces cerevisiae [2] (setting [7]) it was 0.126 ± 0.0071. In addition, the protein stability index was found to be 0.1431 ± 0.00041 in the data set on Saccharomyces cerevisiae [2] (setting [8]) and 0.321 ± 0.027 in the data set on Saccharomyces cerevisiae [2] (setting [9]).
As for WGAHRVRVSRIL, the protein stability index in the data set with Saccharomyces cerevisiae [1] came to 0.509 ± 0.016; in the data set on Saccharomyces cerevisiae [2] (setting [3]) it was 0.686 ± 0.034; in the data set on Saccharomyces cerevisiae [2] (setting [4]), 0.768 ± 0.021; with Saccharomyces cerevisiae [2] (setting [5]), 0.656 ± 0.028; with Saccharomyces cerevisiae [2] (setting [6]), 0.742 ± 0.0081; in the data set on Saccharomyces cerevisiae [2] (setting [7]), 0.295 ± 0.003. Moreover, the protein stability index was determined as 0.326 ± 0.043 with Saccharomyces cerevisiae [2] (setting [8]) and 0.516 ± 0.0052 with Saccharomyces cerevisiae [2] (setting [9]).
